This data set can be described thus: soluble on expression in E. coli; label from the status in PepcDB or PDB records.
Consider “MAGDPMKSPCILLIIVCTLSLTGCASTKQADSDSSLGKAQQTLDSLYQHYSAKDSYLLRENYPFNEQYKVTYLASENQTNMPNQFSYLWPYSGTFSAVNSLLEATHDKKYQQLLEKQVLPGLEEYFDTERTPIAYSSYIRTAPTSDRFYDDNIWVGIDFIDIYQITKEKKYLDKAQLIWNFIESGTDSLLGDGIYWCEQKKESKNTCSNAPGSVFALKLFKATNDSLYFKRGKELYKWTQKNLQDSTDYLYFDNIRLDGKIGKAKFAYNSGQMMQSAALLYQLTKNPDYLKDAQSIAKECYNYFFTDFTTDTGESLKMLKQGNIWFTAVMLRGFIELYQLDQNKTFIDAFNQCLSYAWDNARDENGLFSTDLTGNNNNEKKWLLTQAAMVEMYSRLATIQLEHHHHHH”, for which the “soluble on expression in E. coli” value was “soluble”. Then “MSSAATPPPMEHTSSEDSTTAPLQTPSSSSCLDVTVAVGTSVSYLKASPLVSSPTSLVVDITESSSTLLYDKIKALPCEPVVTEVDTSTLRKETLNQIDGLLGPSPEALELRQLLNSPHLASCVQALDVVVCEIRDPKNEASGSGDKEGNCVSSDPAPAYLNGGVLPLGAQRAGTSFEHFNQSAVHTSYDEEEEELYDCMSRLRLVQFQKDTQEPMGITLKVNEDGRCFVARIMHGGMIHRQATLHVGDEIREINGMSVANRSVESLQEMLRDARGQVTFKIIPSYRSAPPACEIFVRAQFDYEPSQDDLIPCPQAGIPFKTGDILQVISKDDHNWWQARFVSSFPSIGNSSNAQRSNQQQVAGLIPSPELQEWRTACLAMERSKNTCNTHCMWFNKKKKYYTTKYLQKHSALFDQLDLVTYEEVMRLSQYRRKTLVLLGAHGVGRRHIKNTLIHRHPNRFAYPIPHTTRPPRKDEVDGKHYYFVTNEQMMADIQNNEYLEYGTHEESMYGTKLETIRNIHKSGKIAILDVEPQALKVLRTAEYSPFVVFIAAPNLQGMQDPDGSLEKLLNESDVLRQAFGHLFDFIITNSDIDDTIAQLERLVEKLPAYPQWLPVTWVY”, with “not soluble”; and “MLLWVFEYNSVSRASWGDRVPVDKNSCACLEGGYAACLCGVAKSVKGRPVLRGVSLSVKFGEIHVLAGLNGAGKTTSLRVLVGLLSRDSGEARVLGVDPWGGGFERVKGEVGYLPEDASVYERLTGMENILFYARLYSGWRDVEELVENAVFYSGLSREDLARRAGGYSKGMKRRLLLGITLMSKPRLVVLDEPTSGVDPIASNRIKKILRGLSREGRAILVTTHDLALAEEIADRVTIIHGGSTVASGPPYRLVEEYCGETLEDAFVNIVTGGGC”, with “soluble”. Then “MSNSKPVNYLTLKCLLKNMDSGMRLQLFVMFPSIQYLEKLFPLHVKYLTIKSDHITVNRTTFQLKICNKYNNFHGGYKFDFDQYGRLDRGEIEQDPDESIIDVRDGFLSKKGIPECEMETARLVHNLTLQKSQRYSTRIWESHGTILKKLSYYVPENNFIRLKIGKRVEVLEYQRKIHEAMKYLLGRLFGGRSLEANQFSIGCDTVLRVPSTLKFRIENLYTPSFKIANTLDVVNQIVDNSSLPLSSLKYSFENHIYHHPHSLVRTVKMLKLEVEMVPDYISGIVSNLQMVDEKRAHIVFLGDCTSSNFLKILAHWILEFHRDIGTYHTYQLSEAVVDEVMIFVRTNYGVMIEAGLPQTTDQITLNINDTSSLVISKFQQKEKWIFGLKMEH”, with “not soluble”. As for “MSLTEEQLLFRIALTHVKGVGSVLARQLLSAMGSPEAIFSDRKELVQRLPKAPRRLLDAIFSPSVMEEARRKLDQALKAGLNMYFITDDNYPYRLKECVDAPILLYSKGNVDLSPRRVLSIVGTRNITAYGRTATERIVSGLAETIPDLLIVSGLAYGVDVAAHKAALDNGLPTVAVLAHGLDRIYPSGHRSIAMEMLRNGGLLTDYPMGTEPERFNFVGRNRIVAGLSDATLVIESAEKGGSLITAGLAFGYNREVLALPGRATDSRSAGCNALIRDQKAALVSSAQDVLTLLDWSSTIDAKPQTEGHHHHHH”, the entry is “soluble”.

As to “MGSDKIHHHHHHMREKIDALTQNLNRTIVGKTEAIRLVLVALLGGGHALLEDVPGVGKTLLAKSLARSLDGTFQRLQCTPDLLPTDITGTNIWNPKSGEFSFMPGPVFANVVLADEINRATPRTQSALLEVMEEQQVTVDGVSRTVPHPFFVIATQNPVEYQGTFPLPEAQMDRFMLSLSLGYPGVDEELEMLQNLQHGIKVGDLQPCLTLAEVAELREICSQVKVETVLQQYILELVRSTRQDEEITLGVSPRGTVALHKATQALAFLLGRDYAIPDDVKFLAPHVLCHRLIARGGRSARSIVDRLLRSLPIP”, the “soluble on expression in E. coli” value is given as “not soluble”. Then “MGSDKIHHHHHHMSQLLYDNGTHKCIAFTDLVEGEGIQANQFLIVNNGEGMLLDPGGNLTYKNLLAEMASYFLPAHLDYVFASHEDPDIVASANGWLLITDAKILIANEWTRFLPHFCSKGMTAGRVIGIPAQGMRVNLAGQELFVVPAHYMHSVGNFQVYDPVSKILFSGDLGANLVSGHDAAKVIEGAEAFAAHRAATSMDGFHRRYMGGQKVCRLWTNMARGMDIEWIVPQHGASFKGRETVLAFLDWFEGLESGPDLLTQKDFQFPIPENL”, with “not soluble”; and “MTLNAFIEKLSTQPELIEFTETMAVIESHYEFTPTEFANGNTVNLADQNNGSCKIFAFALLNQLSVDQTLACFGQYYRQDVLENPQGDDHQNIRNFMVTGWAGVQFKAQALQAK”, with “not soluble”. Regarding “MSLKHGRTRLIGLIIADITNPYSVNVMSGIEAACREKGFTLLVCNTNNELDQELHYLDLLRSYQVEGIVVNAVGMREDGLNRLQQSALPMVLIDRKIPDFACDVVGLDNAQAATTATEHLVEKGFEAILFLSEPLGSVNTRRERLSAFRATLARHHGVVAENAEVQLNDGAMLDNVLRQFHARHRGMRKAVISANGALTLQVARALKRVGLIWGSDIGLLGFDELEWAELAGVGITTLKQPTWQIGYAAVEQVIRRIAGTNDPIRERVFSGELIVRGSTSREGHHHHHH”, the “soluble on expression in E. coli” value is “soluble”. Then “TLVRVKKSAATLGIAIEGGANTRQPLPRIVTIQRGGSAHNCGQLKVGHVILEVNGLTLRGKEHREAARIIAEAFKTKDRDYIDFLVTEFN”, with “soluble”; and “RMALDEVWDSSHFALQPGRAEDGPGASLALRILAARLPDSGVYVCHARNAHGHAQAGALLQVHQPPESPPADPDEAPAPVVEPLKCAPKTFWVNEGKHAKFRCYVMGKPEPEIEWHWEGRPLLPDRRRLMYRDRDGGFVLKVLYCQAKDRGLYVCAARNSAGQTLSAVQLHVKEPRLRFTRPLQDVEGREHGIAVLECKVPNSRIPTAWFREDQRLLPCRKYEQIEEGTVRRLIIHRLKADDDGIYLCEMRGRVRTVANVTVKGPILKRLPRKLDVLEGENAVLLVETLEAGVEGRWSRDGEELPVICQSSSGHMHALVLPGVTREDAGEVTFSLGNSRTTTLLRVKCVKHSPPGPPILAEMFKGHKNTVLLTWKPPEPAPETPFIYRLERQEVGSEDWIQCFSIEKAGAVEVPGDCVPSEGDYRFRICTVSGHGRSPHVVFHGSAHLVPTARLVAGLEDVQVYDGEDAVFSLDLSTIIQGTWFLNGEELKSNEPEGQVEPGALRYRIEQKGLQHRLILHAVKHQDSGALVGFSCPGVQDSAALTIQESPVHILSPQDKVSLTFTTSERVVLTCELSRVDFPATWYKDGQKVEESELLVVKMDGRKHRLILPEAKVQDSGEFECRTEGVSAFFGVTVQDPPVHIVDPREHVFVHAITSECVMLACEVDREDAPVRWYKDGQEVEESDFVVLENEGPHRRLVLPATQPSDGGEFQCVAGDECAYFTVTITDVSSWIVYPSGKVYVAAVRLERVVLTCELCRPWAEVRWTKDGEEVVESPALLLQKEDTVRRLVLPAVQLEDSGEYLCEIDDESASFTVTVTEPPVRIIYPRDEVTLIAVTLECVVLMCELSREDAPVRWYKDGLEVEESEALVLERDGPRCRLVLPAAQPEDGGEFVCDAGDDSAFFTVTVTEPPVQFLALETTPSPLCVAPGEPVVLSCELSRAGAPVVWSHNGRPVQEGEGLELHAEGPRRVLCIQAAGPAHAGLYTCQSGAAPGAPSLSFTVQVAEPPVRVVAPEAAQTRVRSTPGGDLELVVHLSGPGGPVRWYKDGERLASQGRVQLEQAGARQVLRVQGARSGDAGEYLCDAPQDSRIFLVSVEEPLLVKLVSDLTPLTVHEGDDATFRCEVSPPDADVTWLRNGAVVTPGPQRQSCCSYGGCRMCGQRKARTCVSKWRQAEWVQRGPCAGCEVGSPCPTTLACPWPRMGTSTASSSMVSYWPTRAPTAARATTIAPWPGSA”, with “soluble”.
